This note sets out measurements from patent EP4707393A1, “DOUBLE-STRANDED SIRNA, CONJUGATE THEREOF AND USE THEREOF” (CMS Research & Development Pte. Ltd., priority 2023, dated 2024).

Data set [1] relates to human LPA gene (Genbank number: NM_005577.4). Put plainly: Inhibitory activity against LPA mRNA, psiCHECK-2 dual-luciferase reporter vector in Huh7 cells. Conditions: Huh7 cells transfected with LPA_psiCHECK-2 plasmid, RNAiMAX transfection. The class given is cell-based. In short, it runs like this:
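Huh7 cells transfected with psiCHECK-2 carrying human LPA, then treated next day with compounds (3 concentrations) delivered by RNAiMAX. Dual-Glo readout of firefly and Renilla luciferase per well. Percent inhibition calculated from the reporter ratio relative to the RNAiMAX control.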

Data set [2] in a line: Melting temperature (Tm) by UV absorption at 260 nm. The class given is physicochemical. The settings on record: phosphate buffer solution; average of at least two independent measurements. Here is the method:
The Tm value was determined by recording the change in UV absorption at 260 nm of DNA/RNA in phosphate buffer solution as the temperature increased.
Table 6 Melting temperature (Tm) test instrument parameters
The melting temperature (Tm) was calculated from the first derivative of the smoothed heating curve, and the reported value was the average of at least two independent measurements. Table 7 Melting temperatures (Tm) of conjugates of the present disclosure

Another data set relates to hPBMCs. Put plainly: Immunogenicity test in hPBMCs (IL-6 and TNF-α ELISA of supernatant). In kind it is cell-based, human. Conditions: 18-20 h. The procedure, abridged:
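siRNA conjugates, three-fold serially diluted in water then 10-fold in 1640 medium (5.0% water final), were added in duplicate to PBMCs at 1.6 × 10^6/mL and incubated 18-20 h at 37 °C. TNF-α and IL-6 in supernatant were measured by ELISA; LPS served as positive control.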
In general terms: An ELISA detects its analyte on a solid surface through an enzyme-linked reagent.

Consider “Z42: siRNA conjugate: sense SEQ ID NO:49, ligand D01 at 3' end of sense strand, antisense SEQ ID NO:80 (sense CAGCCCCTTATTGTTATACGA; antisense NCGTATNACAATAAGGGGCNGTT; ligand D01 at sense 3' end; listed as RNA; modified_base 1: mod_base = OTHER; note = 2'-O-methylcytidine; modified_base 2: mod_base = OTHER; note = 2'-O-methyladenosine; modified_base 3: mod_base = OTHER; note = 2'-O-methylguanosine; modified_base 4..7: mod_base = OTHER; note = 2'-O-me; note = n is B33; note = 2'-deoxycytidine; modified_base 4: mod_base = OTHER; note = 2'-O-methyluridine; m)”, for which the EC50 (in general, the concentration that produces a half-maximal response) in data set [1] was 0.31 nM. Further, in data set [2], the “Melting temperature Tm” value is 67.75 °C. In addition, the IL-6 turned out to be 1298.3 pg/mL in the data set with hPBMCs (donor 1 hPBMCs, 5 µg/mL); 1406.8 pg/mL with hPBMCs (donor 1 hPBMCs, 15 µg/mL); 1457.0 pg/mL in the data set on hPBMCs (donor 1 hPBMCs, 45 µg/mL). For the same substance, the TNF alpha in the data set with hPBMCs (donor 1 hPBMCs, 5 µg/mL) turned out to be 35.8 pg/mL; in the data set on hPBMCs (donor 1 hPBMCs, 15 µg/mL) it was 34.8 pg/mL; in the data set with hPBMCs (donor 1 hPBMCs, 45 µg/mL) it was 39.4 pg/mL.

“Z46: siRNA conjugate: sense SEQ ID NO:43, ligand D01 at 3' end of sense strand, antisense SEQ ID NO:66 (sense CAGCCCCTTATTGTTANACGA; antisense TCTCGTATNACAATAAGGGGCTG; ligand D01 at sense 3' end; listed as RNA; modified_base 1: mod_base = OTHER; note = 2'-O-methylcytidine; modified_base 2: mod_base = OTHER; note = 2'-O-methyladenosine; modified_base 3: mod_base = OTHER; note = 2'-O-methylguanosine; modified_base 4..7: mod_base = OTHER; note = 2'-O-me; note = 2'-O-methyluridine; modified_base 4: mod_base = OTHER; note = 2'-fluorocytidine; modified_base 5: mod_base = OTHER; note = 2'-O-methylg)”: in data set [1], the response was half-maximal at 0.31 nM (EC50). Also, in data set [2], the “Melting temperature Tm” value came out at 76.75 °C. Besides, the IL-6 in the data set on hPBMCs (donor 2 hPBMCs, 5 µg/mL) stood at 15.0 pg/mL; with hPBMCs (donor 2 hPBMCs, 15 µg/mL) it was 88.8 pg/mL; with hPBMCs (donor 2 hPBMCs, 45 µg/mL), 9.3 pg/mL. The TNF alpha in the data set on hPBMCs (donor 2 hPBMCs, 5 µg/mL) was 8.1 pg/mL; in the data set with hPBMCs (donor 2 hPBMCs, 15 µg/mL), 22.8 pg/mL; in the data set on hPBMCs (donor 2 hPBMCs, 45 µg/mL), 10.2 pg/mL.
